From publication PMC5291247
Several values for one entry are separate records, joined by “and”; a condition that tells them apart may be missing. Equal entries are not always repeated.

How the values were obtained:
[1] = molecular target: Vps75 from which native cysteine residues had been removed (yeast (S. cerevisiae in the introduction)) (UniProt P53853); experiment: SEC-MALS + cross-linking; partial DTSSP cross-linking at 200 mM NaCl, 20 mM HEPES pH 7.5 (Vps75 alone, or Vps75 dimers and H3-H4 dimers 1:1, 10 uM); SEC-MALS on Superdex 200 10/300 GL at 400 mM NaCl, 20 mM HEPES-KOH pH 7.5; fractions on SDS-PAGE with and without DTT
[2] = molecular target: Vps75 from which native cysteine residues had been removed (yeast (S. cerevisiae in the introduction)) (UniProt P53853); experiment: cross-linking; Vps75 titrated with H3-H4 at 200 mM NaCl, 20 mM HEPES pH 7.5; 30 min room temperature, 2 mM BS2G for 1 h, SDS-PAGE
[3] = molecular target: Vps75 from which native cysteine residues had been removed (yeast (S. cerevisiae in the introduction)) (UniProt P53853); experiment: cross-linking; cross-linking analysis of Vps75 with Asf1 and H3-H4, SDS-PAGE (Supplementary Figure S4)

Row | stoichiometry N [1] | stoichiometry N [2] | stoichiometry N (Vps75 monomers per H3-H4 dimer) [3] | Substance
1 | 4 and 2 | 4 | – | Vps75 from which native cysteine residues had been removed (from UniProt P53853 1-264) (natural protein)
2 | – | – | 2 | histones H3–H4 from which native cysteine residues had been removed (from UniProt P84233 1-136; P62799 1-103) (complex)
